The values that follow come from patent US20060122108A1.

Test [1] addresses BSA (UniProt P02769). The test is described as follows: phage ELISA, control well (BSA blocking solution only); phage 1 ng/well; 100% = SEQ 5 phage at 710 ng/well.
The target in test [2] is BSA (UniProt P02769). The test is described as follows: phage ELISA, control well (BSA blocking solution only); phage 0 ng/well (printed); 100% = SEQ 5 phage at 710 ng/well.
The target of test [3] is BSA (UniProt P02769). The test is described as follows: phage ELISA, control well (BSA blocking solution only); phage 4 ng/well; 100% = SEQ 5 phage at 710 ng/well.
The target in test [4] is BSA (UniProt P02769). The test is described as follows: phage ELISA, control well (BSA blocking solution only); phage 870 ng/well; 100% = SEQ 5 phage at 710 ng/well.
The target of test [5] is BSA (UniProt P02769). The test is described as follows: phage ELISA, control well (BSA blocking solution only); phage 134 ng/well; 100% = SEQ 5 phage at 710 ng/well.
In test [6] the target is BSA (UniProt P02769). The test is described as follows: phage ELISA, control well (BSA blocking solution only); phage 22 ng/well; 100% = SEQ 5 phage at 710 ng/well.
The target of test [7] is BSA (UniProt P02769). The test is described as follows: phage ELISA, control well (BSA blocking solution only); phage 859 ng/well; 100% = SEQ 5 phage at 710 ng/well.
Test [8] addresses BSA (UniProt P02769). The test is described as follows: phage ELISA, control well (BSA blocking solution only); phage 132 ng/well; 100% = SEQ 5 phage at 710 ng/well.
In test [9] the target is BSA (UniProt P02769). The test is described as follows: phage ELISA, control well (BSA blocking solution only); phage 18 ng/well; 100% = SEQ 5 phage at 710 ng/well.
Test [10] has as its target BSA (UniProt P02769). The test is described as follows: phage ELISA, control well (BSA blocking solution only); phage 710 ng/well; 100% = SEQ 5 phage at 710 ng/well.
Test [11] concerns the target BSA (UniProt P02769). The test is described as follows: phage ELISA, control well (BSA blocking solution only); phage 109 ng/well; 100% = SEQ 5 phage at 710 ng/well.
Test [12] concerns the target BSA (UniProt P02769). The test is described as follows: phage ELISA, control well (BSA blocking solution only); phage 3 ng/well; 100% = SEQ 5 phage at 710 ng/well.
Test [13] has as its target BSA (UniProt P02769). The test is described as follows: phage ELISA, control well (BSA blocking solution only); phage 20 ng/well; 100% = SEQ 5 phage at 710 ng/well.
For test [14], the target named is BSA (UniProt P02769). The test is described as follows: phage ELISA, control well (BSA blocking solution only); phage 796 ng/well; 100% = SEQ 5 phage at 710 ng/well.
The target of test [15] is BSA (UniProt P02769). The test is described as follows: phage ELISA, control well (BSA blocking solution only); phage 122 ng/well; 100% = SEQ 5 phage at 710 ng/well.

Chain of BSA (P02769 25-607 limits assumed): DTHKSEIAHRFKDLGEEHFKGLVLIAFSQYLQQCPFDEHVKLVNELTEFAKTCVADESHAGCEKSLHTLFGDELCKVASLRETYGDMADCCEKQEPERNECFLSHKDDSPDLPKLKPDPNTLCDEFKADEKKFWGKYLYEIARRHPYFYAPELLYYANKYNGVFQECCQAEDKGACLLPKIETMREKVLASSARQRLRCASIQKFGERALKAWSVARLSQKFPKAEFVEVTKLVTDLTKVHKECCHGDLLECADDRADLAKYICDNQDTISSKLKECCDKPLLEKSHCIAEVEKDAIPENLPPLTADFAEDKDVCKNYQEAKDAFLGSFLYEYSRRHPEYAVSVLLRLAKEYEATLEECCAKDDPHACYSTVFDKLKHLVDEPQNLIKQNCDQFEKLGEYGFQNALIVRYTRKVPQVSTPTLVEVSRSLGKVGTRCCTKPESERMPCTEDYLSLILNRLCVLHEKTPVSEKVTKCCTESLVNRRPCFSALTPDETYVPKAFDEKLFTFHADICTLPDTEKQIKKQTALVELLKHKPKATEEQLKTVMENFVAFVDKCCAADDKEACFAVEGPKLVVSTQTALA

B1: phage presenting SEQ ID NO: 4 (…) (peptide, not shown: large carriers)
chain: TRLAPLVFPLDY
For B1, the percentage of binding in the test with BSA [1] worked out at 0%; with BSA [2], 0%; with BSA [3], 0%; with BSA [4], 10%; with BSA [5], 4%; with BSA [6], 1%.

B2: phage presenting SEQ ID NO: 3 (…) (peptide, not shown: large carriers)
chain: QIEPWFTPEDFP
As for B2, the percentage of binding with BSA [7] turned out to be 10%; with BSA [1], 0%; with BSA [2], 0%; in the test with BSA [3], 1%; with BSA [8] it was 5%; with BSA [6], 2%.

B3: phage presenting SEQ ID NO: 5 (…) (peptide, not shown: large carriers)
chain: SWLQMPWALVRT
Take B3: the percentage of binding with BSA [9] turned out to be 1%; with BSA [10], 5%; in the test with BSA [1], 0%; with BSA [2], 0%; with BSA [11], 3%; in the test with BSA [12], 1%.

B4: phage presenting SEQ ID NO: 2 (…) (peptide, not shown: large carriers)
chain: LWQPPLIPGIDF
For B4, the percentage of binding came out at 4% with BSA [13]; 12% with BSA [14]; 1% with BSA [1]; 0% with BSA [2]; 9% in the test with BSA [15]; 2% with BSA [12].
